Source: patent US20240010696A1

Target: human IL-12 receptor on cells (human) (UniProt P42701)
Experiment: cell-based or functional assay

Sequence of human IL-12 receptor on cells (human) (Q99665 24-862, chain 2 of 2, other chains not shown): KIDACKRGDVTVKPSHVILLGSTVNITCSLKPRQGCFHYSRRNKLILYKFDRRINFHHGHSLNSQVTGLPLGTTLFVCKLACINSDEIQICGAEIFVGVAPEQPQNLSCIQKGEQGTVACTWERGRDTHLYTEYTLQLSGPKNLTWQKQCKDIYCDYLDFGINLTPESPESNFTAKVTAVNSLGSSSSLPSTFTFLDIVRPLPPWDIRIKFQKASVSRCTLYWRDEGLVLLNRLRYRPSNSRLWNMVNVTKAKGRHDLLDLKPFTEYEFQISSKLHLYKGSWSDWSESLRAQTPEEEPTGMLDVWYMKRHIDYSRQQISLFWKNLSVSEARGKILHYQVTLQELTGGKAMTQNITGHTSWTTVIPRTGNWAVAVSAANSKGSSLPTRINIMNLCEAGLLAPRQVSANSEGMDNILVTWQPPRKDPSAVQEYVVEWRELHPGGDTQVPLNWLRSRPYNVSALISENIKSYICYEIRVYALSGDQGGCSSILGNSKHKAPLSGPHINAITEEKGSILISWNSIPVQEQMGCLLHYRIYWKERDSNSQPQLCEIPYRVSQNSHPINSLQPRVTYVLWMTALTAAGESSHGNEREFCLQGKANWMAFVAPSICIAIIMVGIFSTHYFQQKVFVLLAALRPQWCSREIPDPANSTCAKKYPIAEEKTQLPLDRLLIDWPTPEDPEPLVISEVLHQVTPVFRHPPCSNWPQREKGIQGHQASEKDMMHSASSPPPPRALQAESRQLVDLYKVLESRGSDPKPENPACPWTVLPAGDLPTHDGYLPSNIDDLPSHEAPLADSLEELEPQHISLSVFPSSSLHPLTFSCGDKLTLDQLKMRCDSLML

An EC50 (ug/ml) hIL12R+ PD1+ cells (pSTAT4 reporter cell line, PD1-positive) of 0.03 µg/ml and an EC50 (ug/ml) hIL12R+ cells (pSTAT4 reporter cell line, PD1-negative) of 0.1 µg/ml were found for WT IL-12 (row of Table 10) in this work.
